Results reported in paper PMC4028238.

Test system: Influenza A virus hemagglutinin (whole virus as assayed) (Influenza A virus H3N2 A/Texas/1977 (A/Texas/1/77))
Experiment: competition ELISA
Conditions: room temperature, […] (0.5-500 nM) […] (5 nM)

Sequence | relative binding affinity (IC50 ratio vs BV02) (IC50(BV02)/IC50) (PBS) | further results
AAATAAGCCTGACTTAACGGGTGACTCTCAAAACCGCAATACACTCAGCCCTTTAGTGAGGGTTAATT [BV19k] | 0.932 | –
AACCCTCACTCCGACTCACTCAAAACCGCAATACACTCAGCCAGTGAGGGTT [BV19f] | 0.131 | –
AACCCTCACTCTCAAAACCGCAATACAGTGAGGGTT [BV19h] | 0.016 | –
AACGCTCACTAAACCCCCCCCCACCCCCCCCCACCCCCCCCCAAAAGTGAGCGTT [BV45a] | 12.6 | –
AACGCTCACTAACCCCCCCCCCACCCCCCCCCCACCCCCCCCCCAAGTGAGCGTT [BV45] | 14.2 | –
AACGCTCACTACCCCCCCCCCAACCCCCCCCCCAACCCCCCCCCCAGTGAGCGTT [BV45b] | 15.1 | –
AACGCTCACTCCCAAGAAGAAGAACCCCCCCCCCCCCCCCAGTGAGCGTT [BV43b] | 8.01 | –
AACGCTCACTCCCCCAAGAACCCCCCCCCCATGCACCCCCCCCCCAGTGAGCGTT [BV45e] | 11.4 | –
AACGCTCACTCCCCCAAGAACCCCCCCCCCCCTCCCCCCCCCCCCAGTGAGCGTT [BV45c] | 11.7 | –
AACGCTCACTCCCCCAAGAACCCCCCCCCCCTGACCCCCCCCCCCAGTGAGCGTT [BV45d] | 10.7 | –
AACGCTCACTCCCCCACCCCCCCACCCCCCCACCCCCCCACCCCCAGTGAGCGTT [BV35m] | 6.54 | –
AACGCTCACTCCCCCCCCACCCCCCCCACCCCCCCCACCCCCCCCAGTGAGCGTT [BV35n] | 7.23 | –
AACGCTCACTCCCCCCCCCCCACCCCCCCCCCCACCCCCCCCCCCAGTGAGCGTT [BV35o] | 9.92 | –
AACGCTCACTCCCCCCCCCCCCCCAAGAAGAACCCCCCCCCCCCCAGTGAGCGTT [BV42b] | 14.9 | –
AACGCTCACTCCCCCCCCCCCCCCCAAGAACCCCCCCCCCCCCCCAGTGAGCGTT [BV35s] | 7.45 | –
AACGCTCACTCCCCCCCCCCCCCCCCCACCCCCCCCCCCCCCCCCAGTGAGCGTT [BV35p] | 9.88 | –
AACGCTCACTCCCCCCCCCCCCCCCCCCCAGTGAGCGTT [BV35g] | 0.639 | –
AATTAACCCTCACTAAAGCCGACTCACTCAAAACCGCAATACACTCAGCCCTTTAGTGAGGGTTAATT [BV19b] | 1.26 | –
AATTAACCCTCACTAAAGGGCTCTCACTCAAAACCGCAATACACTCAGCCCTTTAGTGAGGGTTAATT [BV19a] | 0.574 | –
AATTAACCCTCACTAAAGGGCTGAGTCTCAAAACCGCAATACACTCAGCCCTTTAGTGAGGGTTAATT [BV19] | 1.34 | –
AATTAACCCTCACTAAAGGGCTGAGTCTCAAAACCGCAATACACTGGTTGTACAACCAGTGTATTGCG [BV14] | 1.33 | –

Sequence | relative binding affinity (IC50 ratio vs BV02) (IC50(BV02)/IC50) (PBS) | further results
AATTAACCCTCACTAAAGGGCTGAGTCTCAAAACCGCAATACACTGGTTGTATGGTCGAATAAGTTAA [BV02] | 1 | IC50 (PBS): 55 nM
AATTAACCCTCACTAAAGGGCTGAGTCTCAAAACCGCAATACACTGGTTGTATGTTAATTGGGAGTGA [BV18] | 7.26 | –
AATTAACCCTCACTAAAGGGCTGAGTCTCAAAACGTTTTGAGACTCAGCCCTTTAGTGAGGGTTAATT [BV11] | 0.124 | –
AATTAACCCTCACTAAAGGGCTGATGCGGAATAAGTTAAAACCGCAGGTATACACTGGTTGTATCGAA [BV02a] | 0.946 | –
AATTAACCCTCCTAAAGGGTCTGAGTCTCAAAACCGCAATACACTCAGCCCTTTAGTGAGGGTTAATT [BV19l] | 0.004 | –
AATTAACCCTGACTAAAGGGGTGAGTCTCAAAACCGCAATACACTCAGCCCTTTAGTGAGGGTTAATT [BV19i] | 0.071 | –
AATTAACGCTCACTAAAGCCCCACCCACCCACCCACCCACCCACCCACCCCTTTAGTGAGCGTTAATT [BV36b] | 0.611 | –
AATTAAGCCTGACTTAAGGGGTGAGTCTCAAAACCGCAATACACTCAGCCCTTTAGTGAGGGTTAATT [BV19j] | 0.071 | –
AGATAAATGTCCGGGTTCGCTTCACTGATCAAACATAGACAGGTATAATTACTGCCTGAAGAAAATCC [S2] | 1 | –
ATTAACCCTCACTAAAGGGCTGAGTCTCAAAACCGCAATACACTGGTTGTATGGTCGAATAAGTTAA [BV28] | – | relative binding affinity (IC50 ratio vs BV02) (IC50(BV02)/IC50) (* marks (phosphorothioate) after nt 1,2,3 and the last 3 linkages, PBS): 1.36
ATTAACCCTCACTAAAGGGCTGAGTCTCAAAACCGCAATACACTGGTTGTATGGTCGAATAAGTTAA [BV29] | – | relative binding affinity (IC50 ratio vs BV02) (IC50(BV02)/IC50) (* marks (phosphorothioate) after nt 1,2,3, 3' inverted dT, PBS): 6.7
ATTAACCCTCACTAAAGGGCTGAGTCTCAAAACCGCAATACACTGGTTGTATGGTCGAATAAGTTAA [BV31] | – | relative binding affinity (IC50 ratio vs BV02) (IC50(BV02)/IC50) (* marks (phosphorothioate): A*T*T*AACC*CTCACTAAAGGG*CTGAGTC*TCAAAACCG*CAATACACTG*GTTGTATG*GTCGAATAAGT*T*A*A, PBS): 7.51
ATTAACCCTCACTAAAGGGCTGAGTCTCAAAACCGCAATACACTGGTTGTATGGTCGAATAAGTTAA [BV32] | – | relative binding affinity (IC50 ratio vs BV02) (IC50(BV02)/IC50) (5' PEG200, PBS): 1.33
CACCACCACCACCACCACCACCACCACCAC [BV24b] | 0.05 | –
CCCCCCCCCCCCCCCCCGCGCTGAGTCCCCCCCCCCCCCCCCCCCACTCAGCGCG [BV35c] | 1.16 | –
CCCCCCCCCGCGCTGAGTCCCCCCCCCCCCCCCCCCCACTCAGCGCGCCCCCCCC [BV35b] | 0.938 | –
CTCACTAAAGCGCTGAGTCCCCCCCCCCCCCCCCCCCACTCAGCGCTTTAGTGAG [BV35] | 1.01 | –
CTCACTAAAGGGCTGAGTCAAACCGCAATACACTGGTTGTATGGTCGAATAAGTT [BV27] | 0.116 | –
CTCACTAAAGGGCTGAGTCAAACCGCAATACACTGGTTGTATGGTCGGTTAAGTT [BV27c] | 0.771 | –
CTCACTAAAGGGCTGAGTCTCAAAACCGCAATACACTCAGCCCTTTAGTGAG [BV19g] | 0.132 | –
CTCCTCCTCCTCCTCCTCCTCCTCCTCCTC [BV24a] | 0.08 | –

Sequence | relative binding affinity (IC50 ratio vs BV02) (IC50(BV02)/IC50) (PBS) | further results
GAAATAACCTCTGATAAAAAATTTCTCCATAGCGAAGTAAGTCCATAAGGAATGCCGATTCGGCTTGC [S1] | 1.1 | –
GCTGAGTCTCAAAACCGCAATACACTGGTT [BV26] | 0.792 | –
GGCTCACTAAAGGGCTGAGTCTCAAAACCGCAATACACTCAGCCCTTTAGTGAGGGTTAATTTTAAAGG [BV19c] | 0.086 | –
GGCTGAGTCAAACCGCCTAACACTGGTACAATGGCGGTTAAGTT [BV27m] | 0.012 | –
GGTAGTTATAGTATATGGAAGGGGCCCCCCCCCCCCCCCCGTGTCGTATGG [C7C] | 15.5 | –
GGTAGTTATAGTATATGGAAGGGGGTGTCGTATGG [C7-35M] | 0.549 | –
GTAAATACCTCTGAAATAATATCTCCATGACAGAGTAAGTCCATGAGAACTGACGATGCAAGTCTGTC [S3] | 0.7 | –
GTCACTAAAGGGCTGAGTCAAACCGCAATACACTGGTTGTATGGTCGGTTAAGTT [BV27f] | 0.75 | –
GTCACTAAAGGGCTGAGTCAAACCGCCATACACTGGTTGTATGGCGGTTAAGTT [BV27j] | 0.089 | –
GTTTTGAGACTCAGCCCGGGCTGAGTCTCAAAACCGCAATACACTGGTTGTACAACCAGTGTATTGCG [BV13] | 0.084 | –
TCATTCTCAGTAAAGGGCTGAGAATTCAAACCGCAATACACTGGTAAAAAGTGCGGTTAAG [BV27p] | 0.133 | –
TCATTCTCAGTAAAGGGCTGAGTCAAACCGCAATACACTGGTAAAAAGTGCGGTTAGCGAG [BV27o] | 0.116 | –
TCCTCAGCAAAATAGCGGGGCTGAGTCAAACCGCAATACACTGGTAAAAAGTGCGGTTAAG [BV37b] | 1 | –
TCCTCAGCAAAATAGCGGGGCTGAGTCTCAAACCGCAATACACTGGTAAAAAGTGCGGTTA [BV37c] | 7.56 | –
TCCTCAGTAAAATAGCGGGGCTGAGTCAAACCGCAATACACTGGTAAAAAGTGCGGTTAAG [BV27n] | 0.151 | –
TCCTCAGTAAAGGGCTGAGAAACCGCAATACACTGGTAAAAAGTGCGGTTAAGTT [BV27g] | 0.093 | –
TCCTCAGTAAAGGGCTGAGTCAAAACCGCAATACACTGGTAAAAAGTGCGGTTAG [BV27i] | 0.065 | –
TCCTCAGTAAAGGGCTGAGTCAAACCGCAATACACTGGTAAAAAGTGCGGTTAAG [BV27h] | 0.092 | –
TCTCAGCCCCCGCTGAGTCAAAGCGCACCCCCCCCCCCCCCCCCCCTGCGCTTAA [BV37f] | 0.495 | –
TCTCAGCCCCCGCTGAGTCAAAGCGCACCCCCCCCCCCCCCCCTGCGCTTAA [BV37e] | 0.995 | –
TTCCTCAGCAAAATAGCGGGGCTGAGCAACCGCAATACACTGGTAAAAAGTGCGGTTAAGA [BV37a] | 0.874 | –
